# According to patent US20160257732A1 (published 2016):
# Where “and” joins values, the source holds several entries; their conditions need not be identical. Identical values can stand only once. Like-named read-outs stand apart in the source and are kept apart here.
# Key:
# Assay in all cases: cell-based or functional assay
# [1] = molecular target: HA of A/Kawasaki/9/86 (H1N1) (influenza A virus)
# [2] = molecular target: HA of ca A/swine/Missouri/06 (H2N3) (influenza A virus)
# [3] = molecular target: HA of A/New Jersey/8/76 (H1N1) (influenza A virus)
# [4] = molecular target: HA of A/Fort Monmouth/1/47 (H1N1) (influenza A virus)
# [5] = molecular target: HA of ca A/Vietnam/1203/04 (H5N1) (influenza A virus)
# [6] = molecular target: HA of A/Hong Kong/8/68 (H3N2) (influenza A virus)
# [7] = molecular target: HA of ca A/Sydney/5/97 (H3N2) (influenza A virus)
# [8] = molecular target: HA of ca A/Netherlands/219/03 (H7N7) (influenza A virus)
# [9] = molecular target: HA of ca A/New Caledonia/20/99 (H1N1) (influenza A virus)
# [10] = molecular target: HA of A/Wyoming/03/03 (H3N2) (influenza A virus)
# [11] = molecular target: HA of ca A/teal/Hong Kong/W312/97 (H6N1) (influenza A virus)
# [12] = molecular target: T1, HA of ca A/chicken/Hong Kong/G9/97 (H9N2) (influenza A virus)
# [13] = molecular target: HA of ca A/Hong Kong/213/03 (H5N1) (influenza A virus)
# [14] = molecular target: HA of A/Wisconsin/67/05 (H3N2) (influenza A virus)
# [15] = molecular target: HA of A/Victoria/3/75 (H3N2) (influenza A virus)
# [16] = molecular target: HA of ca A/Panama/2007/99 (H3N2) (influenza A virus)
# [17] = molecular target: T2, HA of ca A/Brit. Columbia/CN-6/04 (H7N3-LP) (influenza A virus)
# [18] = molecular target: HA of ca A/Perth/16/09 (H3N2) (influenza A virus)
# [19] = molecular target: HA of ca A/Texas/36/91 (H1N1) (influenza A virus)
# [20] = molecular target: HA of ca A/Beijing/262/95 (H1N1) (influenza A virus)
# [21] = molecular target: HA of swine-origin A/Minnesota/11/2010 H3N2 virus (influenza A virus)
# [22] = molecular target: HA of A/Kawasaki/9/86 (H1N1) (influenza A virus); remark: listed apart in the source
# [23] = molecular target: HA of ca A/swine/Missouri/06 (H2N3) (influenza A virus); remark: listed apart in the source
# [24] = molecular target: HA of A/New Jersey/8/76 (H1N1) (influenza A virus); remark: listed apart in the source
# [25] = molecular target: HA of A/Fort Monmouth/1/47 (H1N1) (influenza A virus); remark: listed apart in the source
# [26] = molecular target: HA of ca A/Vietnam/1203/04 (H5N1) (influenza A virus); remark: listed apart in the source
# [27] = molecular target: HA of A/Hong Kong/8/68 (H3N2) (influenza A virus); remark: listed apart in the source
# [28] = molecular target: HA of ca A/Sydney/5/97 (H3N2) (influenza A virus); remark: listed apart in the source
# [29] = molecular target: HA of ca A/Netherlands/219/03 (H7N7) (influenza A virus); remark: listed apart in the source
# [30] = molecular target: HA of ca A/New Caledonia/20/99 (H1N1) (influenza A virus); remark: listed apart in the source
# [31] = molecular target: HA of A/Victoria/361/11 (H3N2) (influenza A virus)
# [32] = molecular target: HA of ca A/teal/Hong Kong/W312/97 (H6N1) (influenza A virus); remark: listed apart in the source
# [33] = molecular target: T1, HA of ca A/chicken/Hong Kong/G9/97 …; remark: listed apart in the source
# [34] = molecular target: HA of ca A/Hong Kong/213/03 (H5N1) (influenza A virus); remark: listed apart in the source
# [35] = molecular target: HA of A/Wisconsin/67/05 (H3N2) (influenza A virus); remark: listed apart in the source
# [36] = molecular target: HA of A/Victoria/3/75 (H3N2) (influenza A virus); remark: listed apart in the source
# [37] = molecular target: HA of ca A/Panama/2007/99 (H3N2) (influenza A virus); remark: listed apart in the source
# [38] = molecular target: T2, HA of ca A/Brit. Columbia/CN-6/04 …; remark: listed apart in the source
# [39] = molecular target: HA of ca A/Japan/57 (H2N2) (influenza A virus)
# [40] = molecular target: HA of ca A/Perth/16/09 (H3N2) (influenza A virus); remark: listed apart in the source
# [41] = molecular target: HA of virus H1-BS10
# [42] = molecular target: HA of ca A/mallard/Alberta/89/85 (H6N2) (influenza A virus)
# [43] = molecular target: HA of ca A/Texas/36/91 (H1N1) (influenza A virus); remark: listed apart in the source
# [44] = molecular target: HA of ca A/Beijing/262/95 (H1N1) (influenza A virus); remark: listed apart in the source
binder,measurement,setting,value
"Antibody 10 (antibody, V domains shown) VH: QVQLQQSGPGLVKPSQTLSLTCAISGDSVSSNSATWNWIRQSPSRGLEWLGRTYYRSKWYNDYADFLKRRITINPDTSNNEVSLRLTSVTPDDTALYYCARGGHITVFGVNIDAFDVWGQGTMVTVSS VL: DIQMTQSPSSLSASVGDRITISCRTSQSLRSYLHWYQQKPGKAPKLLIYASSTLQSGVPSRFSGSGSGTDFTLTISNLQPEDFATYYCQLSRTFGQGTKVEIK","Neutralization IC50, H1-Kaw86",[1],1.62 µg/mL
same,"Neutralization IC50, H2-MO06",[2],1.04 µg/mL
same,"Neutralization IC50, H1-NJ76",[3],0.15 µg/mL
same,"Neutralization IC50, H1-FM47",[4],1.11 µg/mL
same,"Neutralization IC50, H5-VM04",[5],2.21 µg/mL
same,"Neutralization IC50, H3-HK68",[6],0.85 µg/mL
same,"Neutralization IC50, H3-Syd97",[7],9.29 µg/mL
same,"Neutralization IC50, H7-NLD03",[8],3.8 µg/mL
same,"Neutralization IC50, H1-Ncal99",[9],1.26 µg/mL
same,"Neutralization IC50, H3-Wy03",[10],1.52 µg/mL
same,"Neutralization IC50, H6-HK97",[11],1.05 µg/mL
same,"Neutralization IC50, H9-HK97",[12],1.76 µg/mL
same,"Neutralization IC50, H5-HK03",[13],1.6 µg/mL
same,"Neutralization IC50, H3-WI05",[14],4.46 µg/mL
same,"Neutralization IC50, H3-Vic75",[15],0.91 µg/mL
same,"Neutralization IC50, H3-Pa99",[16],18.7 µg/mL
same,"Neutralization IC50, H7-BC04",[17],3.59 µg/mL
same,"Neutralization IC50, H3-Perth09",[18],2.56 µg/mL
same,"Neutralization IC50, H1-TX91",[19],0.48 µg/mL
same,"Neutralization IC50, H1-BJ95",[20],4.46 µg/mL
"Antibody 11 (antibody, V domains shown) VH: QVQLQQSGPGLVKPSQTLSLTCAISGDSVSSYNAVWNWIRQSPSRGLEWLGRTYYRSGWYNDYAESVKSRITINPDTSKNQFSLQLNSVTPEDTAVYYCARSGHITVFGVNVDAFDMWGQGTMVTVSS VL: DIQMTQSPSSLSASVGDRVTITCRTSQSLSSYTHWYQQKPGKAPKLLIYAASSRLSGVPSRFSGSGSGTDFTLTISSLQPEDFATYYCQQSRTFGQGTKVEIK","Neutralizing activity IC50, swine-origin A/Minnesota/11/2010",[21],1.6 µg/mL and 1.5 µg/mL
same,"Neutralization IC50, H1-Kaw86",[22],0.53 µg/mL
same,"Neutralization IC50, H2-MO06",[23],0.6 µg/mL
same,"Neutralization IC50, H1-NJ76",[24],0.13 µg/mL
same,"Neutralization IC50, H1-FM47",[25],0.43 µg/mL
same,"Neutralization IC50, H5-VM04",[26],0.57 µg/mL
same,"Neutralization IC50, H3-HK68",[27],0.46 µg/mL
same,"Neutralization IC50, H3-Syd97",[28],1.53 µg/mL
same,"Neutralization IC50, H7-NLD03",[29],0.94 µg/mL
same,"Neutralization IC50, H1-Ncal99",[30],0.66 µg/mL
same,"Neutralization IC50, H3-VC11",[31],0.85 µg/mL
same,"Neutralization IC50, H6-HK97",[32],0.4 µg/mL
same,"Neutralization IC50, H9-HK97",[33],0.36 µg/mL
same,"Neutralization IC50, H5-HK03",[34],0.21 µg/mL
same,"Neutralization IC50, H3-WI05",[35],1.07 µg/mL
same,"Neutralization IC50, H3-Vic75",[36],0.46 µg/mL
same,"Neutralization IC50, H3-Pa99",[37],2.18 µg/mL
same,"Neutralization IC50, H7-BC04",[38],0.71 µg/mL
same,"Neutralization IC50, H2-JP57",[39],0.31 µg/mL
same,"Neutralization IC50, H3-Perth09",[40],0.17 µg/mL
same,"Neutralization IC50, H1-BS10",[41],1.15 µg/mL
same,"Neutralization IC50, H6-AB85",[42],0.24 µg/mL
same,"Neutralization IC50, H1-TX91",[43],0.11 µg/mL
same,"Neutralization IC50, H1-BJ95",[44],1.01 µg/mL
